In this experiment the target is integrin α2β1 on human platelets (human (endogenous in platelets)) (UniProt P17301). Kind of experiment: flow cytometry on cells. For orientation: Flow cytometry measures light scatter and fluorescence of single cells or particles in a stream.
Sequence of UniProt P17301 (P17301 30-1181, chain 1 of 2): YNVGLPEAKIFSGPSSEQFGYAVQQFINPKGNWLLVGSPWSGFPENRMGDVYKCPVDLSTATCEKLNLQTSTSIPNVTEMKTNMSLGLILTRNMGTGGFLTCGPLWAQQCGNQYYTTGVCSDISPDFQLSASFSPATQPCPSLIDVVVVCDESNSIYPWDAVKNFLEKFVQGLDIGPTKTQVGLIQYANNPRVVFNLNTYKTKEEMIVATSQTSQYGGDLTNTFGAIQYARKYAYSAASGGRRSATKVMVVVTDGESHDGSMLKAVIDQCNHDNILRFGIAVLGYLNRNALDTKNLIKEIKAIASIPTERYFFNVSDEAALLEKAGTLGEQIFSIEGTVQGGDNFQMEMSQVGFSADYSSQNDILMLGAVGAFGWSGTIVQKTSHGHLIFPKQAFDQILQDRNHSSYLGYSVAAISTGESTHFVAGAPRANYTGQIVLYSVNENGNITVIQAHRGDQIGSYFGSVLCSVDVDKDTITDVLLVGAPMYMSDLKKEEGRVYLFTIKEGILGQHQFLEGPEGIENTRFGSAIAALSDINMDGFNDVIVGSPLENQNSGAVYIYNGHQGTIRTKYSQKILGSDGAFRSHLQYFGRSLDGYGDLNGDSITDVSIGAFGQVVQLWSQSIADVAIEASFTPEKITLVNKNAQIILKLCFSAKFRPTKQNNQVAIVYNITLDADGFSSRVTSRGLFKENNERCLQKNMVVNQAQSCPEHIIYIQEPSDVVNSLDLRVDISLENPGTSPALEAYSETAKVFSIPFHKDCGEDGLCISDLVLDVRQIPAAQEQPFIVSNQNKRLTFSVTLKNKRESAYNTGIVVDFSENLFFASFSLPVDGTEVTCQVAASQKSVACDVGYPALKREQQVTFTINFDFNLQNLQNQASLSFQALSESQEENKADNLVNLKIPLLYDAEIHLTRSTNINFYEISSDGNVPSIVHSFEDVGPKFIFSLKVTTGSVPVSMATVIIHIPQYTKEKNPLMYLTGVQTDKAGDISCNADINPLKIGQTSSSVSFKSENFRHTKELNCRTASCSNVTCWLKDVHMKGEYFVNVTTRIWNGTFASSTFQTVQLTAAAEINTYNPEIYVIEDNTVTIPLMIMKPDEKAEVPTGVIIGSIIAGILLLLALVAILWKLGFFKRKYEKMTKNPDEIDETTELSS
Sequence of UniProt P17301 (P05556 21-798, chain 2 of 2, further chain): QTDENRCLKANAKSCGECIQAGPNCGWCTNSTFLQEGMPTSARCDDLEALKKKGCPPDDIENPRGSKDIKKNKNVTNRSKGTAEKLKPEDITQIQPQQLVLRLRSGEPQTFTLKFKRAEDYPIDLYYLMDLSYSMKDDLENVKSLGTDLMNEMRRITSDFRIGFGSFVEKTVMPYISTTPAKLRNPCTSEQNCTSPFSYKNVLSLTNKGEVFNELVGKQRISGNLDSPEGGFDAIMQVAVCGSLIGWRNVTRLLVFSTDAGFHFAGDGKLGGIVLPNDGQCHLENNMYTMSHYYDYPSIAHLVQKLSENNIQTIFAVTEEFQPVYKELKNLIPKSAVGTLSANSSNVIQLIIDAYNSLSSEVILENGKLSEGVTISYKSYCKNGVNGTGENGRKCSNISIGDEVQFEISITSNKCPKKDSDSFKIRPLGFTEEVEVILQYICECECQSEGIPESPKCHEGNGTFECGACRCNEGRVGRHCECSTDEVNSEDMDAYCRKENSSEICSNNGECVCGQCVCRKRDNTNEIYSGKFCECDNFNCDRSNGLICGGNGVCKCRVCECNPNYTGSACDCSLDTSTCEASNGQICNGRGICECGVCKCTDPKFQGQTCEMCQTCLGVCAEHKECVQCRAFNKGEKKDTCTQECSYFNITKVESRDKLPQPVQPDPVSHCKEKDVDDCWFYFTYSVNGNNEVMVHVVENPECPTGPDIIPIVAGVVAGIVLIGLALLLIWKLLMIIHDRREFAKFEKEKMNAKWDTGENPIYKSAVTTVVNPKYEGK

With “Rhinocetin (heterodimeric snaclec from the venom of Bitis gabonica rhinoceros) (complex)”, the percent inhibition of 6F1 antibody binding at 50 μg/ml stood at 65% and the percent inhibition of 6F1 antibody binding at 100 μg/ml amounted to 90%.
